Where two headings read alike, the source gives them in different places.
Key:
[1] = substrate DTT, data from Hoober et al. 1999, cited from earlier work
[2] = substrate GSH, data from Hoober et al. 1999, cited from earlier work
reduced RNase (rRNase) [3] = details: substrate rRNase, data from Hoober et al. 1999, cited from earlier work
[4] = Oxygen electrode assay, oxidation of dithiothreitol by QSOX1; type: biochemical; details: substrate DTT, 25° C., 50 mM phosphate buffer, pH 7.5, 1 mM EDTA
Procedure: (§1) Oxygen electrode assays were performed in duplicate at 25° C. as described in K. L. Hoober, et al., J. Biol. Chem. 271: 30510-30516, 1996. Assays were initiated by the addition of 5 mM DTT or reduced glutathione (GSH). All thiol substrates were standardized with DTNB before use. Reduced RNase was prepared, characterized and stored as described in K. L. Hoober, et al., J. Biol. Chem. 271: 30510-30516, 1996. Assays of the oxidation of reduced RNase were performed as described by K. L. Hoober et al., J. Biol. Chem. 274: 22147-22150.

[5] = Oxygen electrode assay, oxidation of reduced glutathione by QSOX1; type: biochemical; details: substrate GSH, 25° C., 50 mM phosphate buffer, pH 7.5, 1 mM EDTA
Procedure: as §1

reduced RNase (rRNase) [6] = assay: Oxidation of reduced RNase by QSOX1; type: biochemical
Procedure: as §1

[7] = Stimulation of sulfhydryl oxidase activity by added ferrous iron; type: biochemical; details: purified QSOX1 from milk
[8] = Inhibition of sulfhydryl oxidase activity by EDTA; type: biochemical; details: purified QSOX1 from milk

B1: Egg QSOX1: Avian QSOX1 isolated from egg white; data from Hoober et al. 1999 (protein, UniProt Q8JGM4 43-743, looked up)
Sulfhydryl oxidase 1: RSLYSPSDPLELLGADTAERRLLGSPSAWAVEFFASWCGHCIHFAPTWRALAEDVREWRPAVMIAALDCADEANQQVCADFGITGFPTLKFFRAFSKKAEDGIRIAHPTATVADLRRAIITNLEQSGDAWPPACPPLEPASAEEVRSFFHRNTERYLALIFEQSNSFVGREVALDLLQYENVAVRRVLSSEEELVEKFGVTTFPSAYLLLRNGSFSRLPVHAEARSFYTYYLQTLSGVTRGSYRLNVTGSAINETRALQPAQADRSKVYVADLESTVHYTLRVEAGRPAVLAGAQLAALKCYVATLAKYFPGRPSVQTFLQSLDSWLRNWTEPELPRSALKEAVKNKEDASPAAVLPTNVTWVGCRGSEPHFRGYPCGLWTIFHLLTVQAAQGGPDEELPLEVLNTMRCYVKHFFGCQECAQHFEAMAAKSMDQVKSRREAVLWLWSHHNEVNARLAGGDTEDPQFPKLQWPPPDMCPQCHREERGVHTWDEAAVLSFLKEHFSLGNLYLDHAIPIPMAGEEAAASARLSTAGLREKEEEERKEEEEEGEKETEKPHREGETGRPGSSELRRPSIVRRNPRLRALGEDIVDLDSFSEQHFKSKALRAAGRHRRLSKRDTVALHHDAGWERLQVPESREEEEEGGVLRRSPWLRVLGLGFSRLDVSLCIALYFLSSMCLLGMYTFFRLRTRARKGRPGFPVA
[1]
  Km: 150 µM
[1]; thiols oxidized per minute
  kcat: 34.33 s⁻¹
[2]
  Km: 20000 µM
[2]; thiols oxidized per minute
  kcat: 46.33 s⁻¹
Reduced RNase (rRNase) [3]
  Km: 115 µM
Reduced RNase (rRNase) [3]; thiols oxidized per minute
  kcat: 20.33 s⁻¹

B2: Milk QSOX1: Flavin-dependent quiescin Q6 sulfhydryl oxidase 1 isolated and purified from bovine milk, amino acid sequence SEQ ID NO:1 (protein, listed as Bos taurus)
chain: SALYSSSDPLTLLRADTVRSTVLGSSSAWAVEFFASWCGHCIAFAPTWKALANDVKDWRPALNLAALDCAEETNSAVCRDFNIPGFPTVRFFKAFSKTGSGTTLSVAGADVQTLRERLIDALESHSDTWPPACPPLEPARLEEITGFFARNNEEYLALIFEKEGSYLGREVTLDLSQHQGIAVRRVLNTERDVVNRFGVTNFPSCYLLSRNGSFSRVPALTESRSFYTTYLRKFSGSTRGAVQTTAAPATTSAVAPTVWKVADRSKIYMADLESALHYILRIEVGKFSVLEGQRLVALKKFMAVLAKYFRGRPLVQNFLHSMNDWLKKQQRKKIPYGFFKNALDSRKEGTVIAEKVNWVGCQGSEPHFRGFPCSLWILFHFLTVQAAQEGVDHPQERAKAQEVLQAIRGYVRFFFGCRECAGHFEQMASGSMHRVGSLNSAVLWFWSSHNKVNARLAGAPSEDPQFPKVQWPPRELCSACHNELRGTPVWDLDNILKFLKTHFSPSNIVLDFPSAGPGPWR
[4]
  Km: 86 µM
[4]; thiols oxidized per minute
  kcat: 31.33 s⁻¹
[5]
  Km: 4900 µM
[5]; thiols oxidized per minute
  kcat: 29.33 s⁻¹
Reduced RNase (rRNase) [6]; oxidation of reduced pancreatic RNase
  catalytic efficiency relative to egg white QSOX1: two-fold higher
Reduced RNase (rRNase) [6]; substrate rRNase, 25° C., 50 mM phosphate buffer, pH 7.5, 1 mM EDTA
  Km: 60 µM
Reduced RNase (rRNase) [6]; substrate rRNase, 25° C., 50 mM phosphate buffer, pH 7.5, 1 mM EDTA, thiols oxidized per minute
  kcat: 22.33 s⁻¹
[7]
  Is activity stimulated by added Ferrous iron?: No
[8]
  Is EDTA inhibitory?: No

Source: patent publication US7625733B2, “Isolation of quiescin-sulfhydryl oxidase from milk” (University of Delaware, priority 2007, dated 2009)
